Assay results as given in the DeepSol protein solubility set.

Test: soluble on expression in E. coli; label from the status in PepcDB or PDB records

Row | Sequence | soluble on expression in E. coli
1 | MGSDKIHHHHHHMVNGRFFTTAGESPAFRGRAWGRVVTQYFGGLDACCDGDDAFDAQLSQYEIGPMRVFTIAAPAHRIVRPVAALHDHGSDFFKLILQLSGVSEIEQRGKTFRLHSGDWSLYDPRVPYSIANLTHVEQLAIQIPRKQLGGFAVPDLHTSDVREFELKGLFSLLSSFLVSLSEQLPSLPGTTGTALSETILGLIVSTLTAQRDAQGEHVALPAVLRMRVKQYIHGHLADADLSIDRIARELRCSKRYLHRIFEEEGVTIDRYIWSSRLERCKDALDNARAAKPAISEIAFSWGFSSSAHFCRSFKQRYGMTPREFVRRRAWS | not soluble
2 | MKSMVEMQREVDEYIGQFKTGYFSPLANLARLTEEVGELAREINHTYGEKKKKDSEEANTIKAELGDNLFVLLCLANSMGIDMTESFNETMEKFNTRDKNRFERKLEHHHHHH | soluble
3 | PETKTGKKILLAAPRGYCAGVDRAVETVERALEEYGAPIYVRKEIVHNRYVVDTLAEKGAIFVNEASEAPEGANMVFSAHGVSPMVHEEAAAKNIKAIDAACPLVTKVHKEVQRFDKQGFHILFIGHEGHEEVEGTMGHSVEKTHLVDGVAGIATLPEFLNDEPNLIWLSQTTLSVDETMEIVRELKVKFPQLQDPPSDDICYATQNRQVAVKAIAERCELMIVVGSRNSSNSVRLVEVAKQNGADNAYLVDYAREIDPAWFEGVETIGISSGASVPEILVQGVIERLAEFGYD | not soluble
4 | MGRLDGKVIILTAAAQGIGQAAALAFAREGAKVIATDINESKLQELEKYPGIQTRVLDVTKKKQIDQFANEVERLDVLFNVAGFVHHGTVLDCEEKDWDFSMNLNVRSMYLMIKAFLPKMLAQKSGNIINMSSVASSVKGVVNRCVYSTTKAAVIGLTKSVAADFIQQGIRCNCVCPGTVDTPSLQERIQARGNPEEARNDFLKRQKTGRFATAEEIAMLCVYLASDESAYVTGNPVIIDGGWSLG | soluble
5 | SFGVIQKEERFNEVFLNYFKENKIEIAHAITKLFPFLESLRDHSFITDKIYADSYEACRNSVPIVKVVYNVLSHLERLSDSSFLWALFNRVNLKEYPALREIHKSLGTELQDRYSPQKCKQEEQKLATVHPSYEQGTNLCTHEKWAQPCFVKQDNLQEPEIQQNQVDEIIVISSESSECSDEDEEDQALGTGLRRQMNKEAEDSAPHRRSRT | soluble
6 | MNLVKLLANNWQPIAIIALVGTGLAVSHHQGYKSAFAKQQAVIDKMERDKAQALLLSAQNYARELELARAEAKKYEVKAHAVGMALAKKQAEVSRLKTERDLCKIPFPPDSRNPNTGFRLFSPQIPPNFTQIPP | not soluble
7 | MNDPREILAVDPYNNITSDEEDEQAIARELEFMERKRQALVERLKRKQEFKKPQDPNFEAIEVPQSPTKNRVKVGSHNATQQGTKFEGSNINEVRLSQLQQQPKPPASTTTYFMEKFQNAKKNEDKQIAKFESMMNARVHTFSTDEKKYVPIITNELESFSNLWVKKRYIPEDDLKRALHEIKILRLGKLFAKIRPPKFQEPEYANWATVGLISHKSDIKFTSSEKPVKFFMFTITDFQHTLDVYIFGKKGVERYYNLRLGDVIAILNPEVLPWRPSGRGNFIKSFNLRISHDFKCILEIGSSRDLGWCPIVNKKTHKKCGSPINISLHKCCDYHREVQFRGTSAKRIELNGGYALGAPTKVDSQPSLYKAKGENGFNIIKGTRKRLSEEEERLKKSSHNFTNSNSAKAFFDEKFQNPDMLANLDNKRRKIIETKKSTALSRELGKIMRRRESSGLEDKSVGERQKMKRTTESALQTGLIQRLGFDPTHGKISQVLKSSVSGSEPKNNLLGKKKTVINDLLHYKKEKVILAPSKNEWFKKRSHREEVWQKHFGSKETKETSDGSASDLEII | soluble
8 | GPGSMVEVPRNFRLLQELEAGEKGTGVSQSVSIGLSGMDDIYMHNWNGTILGPPGTTFENRILSLEIHCDEHYPKRPPNIKFISRVNLPCVSSDGTVDKNKFAVFKTWDRNFTMAHCLMELRREMSLPANKKLPQPEEGSTY | soluble
9 | SEEEDDEVMVREGLMASQREIFSISGPIHLTSIDWNNSYHRTSVASCLVQAVYTLERDRQQNRIGLKSQANHWWEFFNFTLAETLIDDSDGSIYGAVFEYKHFFSYNYHHTPHSKPPPRHVIAFRGTILKPHSRSRDLKLDLRCIRDSLHDSTRFVHAIQVIQSAVAKTGNAAVWLAGHSLGAAVALLAGKIMTRSGFPLESYLFNPPFSSIPIEKLVKSEKLKHGVRFAGSLVKAGVAIAVKGRHHNKGQEDDSFMKLASWIPYLYLNPLDTICSEYIGYFKHRNKMFEIGAGKIERIATRNSLRSLLSGGGGGGSSSDSSSEPLHLLPSAYMTINASKSPNFKRAHGIHQWWDPMFNGEYVLHQFNN | soluble
10 | MVEKFDTIYDYYVDKGYEPSKKRDIIAVFRVTPAEGYTIEQAAGAVAAESSTGTWTTLYPWYEQERWADLSAKAYDFHDMGDGSWIVRIAYPFHAFEEANLPGLLASIAGNIFGMKRVKGLRLEDLYFPEKLIREFDGPAFGIEGVRKMLEIKDRPIYGVVPKPKVGYSPEEFEKLAYDLLSNGADYMKDDENLTSPWYNRFEERAEIMAKIIDKVENETGEKKTWFANITADLLEMEQRLEVLADLGLKHAMVDVVITGWGALRYIRDLAADYGLAIHGHRAMHAAFTRNPYHGISMFVLAKLYRLIGIDQLHVGTAGAGKLEGGKWDVIQNARILRESHYKPDENDVFHLEQKFYSIKAAFPTSSGGLHPGNIQPVIEALGTDIVLQLGGGTLGHPDGPAAGARAVRQAIDAIMQGIPLDEYAKTHKELARALEKWGHVTPV | soluble
11 | RPVWYGEPVDIQPEHRDMMLVVDLSGSMAEEDMKTSNGDFVDRLTAVKQVVSDFIDQRKGDRLGLVLFGDHAYLQTPLTFDRNTVREQLDRTVLNLVGQRTAIGEGLGLATKTFIESNAPQRTIILLSDGANTAGVLEPLEAAQLAKDNHAKIYTVGIGAGEMQVRGFFGKQTVNTARDLDEDTLTKIATMTGGQYFRARNADELAEIYQTIDALEP | soluble
12 | MAHHHHHHMSDAAPGPAPAPVTAAVDAPPLPAPTKVKPPRKKPPRAEEANPRLLAPANGVAAQQQKQRDKEFATHKAHILTNLQTNACDLSPKGSLDAKCLPVMGVLNTHKDYVTTSSCSGRIALFHSIKHSEACGADDGTATPKPRMKRGENAALGWVFVKHGMLRPMEMAQVVGFLCGAPTTPEDVALDSAQMEKHAAHMASVSCSAHCHSAAPGSLLAEMYDGEVEGALVGARVSGDEVAALPVPTRGTVSLKMEPFVMHVQCRTMEAAKLLLSAVVSDSGFRNSGVVPPGKKIMCGIRSAAGLGLEVPVVVDGVNHVASQRAYVWALLGLANEKMEANEKKIKLLERSVAARVLPA | soluble
13 | MASTQCVNIQKRDIIRGASDVSWFDVLLEKGACVTISAQDKPSVDLWLDDVIQESLIEGRHYCTKASTSDLKADARCPTQGEATMREEYLDGYVCKRSFSDRGWGNGCGLFGKGSIVGCAKATCGANDIIKSYSYDSPKVKYVIGAEVHQGKLLTNNSTDRIVKTTFTAESEKHTITIADYGSMDFTCRVVASAELSNIRMIELDGHMFNVHEDWLSDLPLPSKISGGSWHGMDRLVVFKEPHAVKMEIQACGDQRPAVFKSLVKAEEVTKTSNSYHLTGGHVDCRVSTLNLRMKGLTYQMCSSSFVWHKRPVATQHGTVAMEVKYKGSDAPCRIPVSVEKEGYNGKNFGNLITANPFAANNEAVVFLELEAPLGVSTIKVGGAVFQWKQEGSSIGKALEHHHHHH | not soluble
14 | DDYDQSLCSTGFYVVRSNQINPETLLTLFKSLPIQQLLKKACSGTILTGIGKQEFEKIPIPLIRPEVQEEIAQHVQRSFALRKEASELLEKAKLSVEYAIETGGGNSLIYSGLLNTLAKYERLAMWLLLKELGIVDESPNRQRVVTTEKRLSESFFTSGRLDAEYYQPKYDYLDAQFSSIPTKRLGDIVNIHKSIEPGSDAYQENGIPFVRVADLSKFGIETSSICLDSSTYSTAPRPRKNTILLSKDGSVGIAYKMEEDADIITSGAILHLSMKGKELLPDYLTLVLNSPIVRMQAERDAGGSIIQHWKPSEISQVIIPMLPVYIQQKLSDLVSKSFAFRRESKALLERAKAMVEQAIEFSA | not soluble
15 | MEYRSLTLDDFLSRFQLLRPQINRETLNHRQAAVLIPIVRRPQPGLLLTQRSIHLRKHAGQVAFPGGAVDDTDASAIAAALREAEEEVAIPPSAVEVIGVLPPVDSVTGYQVTPVVGIIPPDLPYRASEDEVSAVFEMPLAQALHLGRYHPLDIYRRGDSHRVWLSWYEQYFVWGMTAGIIRELALQIGVKPMGHHHHHHSH | not soluble
16 | AESESFVLDFSQPSADYLDFRNRLQADHVCLENCVLKDKAIAGTVKVQNLAFEKTVKIRMTFDTWKSYTDFPCQYVKDTYAGSDRDTFSFDISLPEKIQSYERMEFAVYYECNGQTYWDSNRGKNYRIIRAELKSTQGMTKPHSGPDLG | soluble
17 | TTCCPSIVARSNFNVCRLPGTPEALCATYTGCIIIPGATCPGDYAN | soluble
18 | GPGSMRAEKVTVSPAGEGAAPLFVFGYGSILWKQQFEYLRALPCCVHGYKRVFYQGSTDHRGVPARPGRVVTLLTCGDPEAWVGGVAFELPVEEEKREKILAQLDDRESGGYEREEVTLYDIKTHERLHLPPGAVCLCYRATEDNPEYLGEAKDEAIAEQILSCEGLSGPNSEYLFKLAEALRKLESADQHVFAVETAALHIMKAQNVPE | soluble
19 | MSLAPSPSSSTAPAALQQLGWQARLRWVHGICQGLPKVAQQLDEFLANQTGVVSTAREMQEWREAWVGFQQHKDAWVQACSQALQQAARKPPSQAGESSASGSAPLNFELLSDDVVENKILASRMALAMGETLQPGFEAMRLRMQALEGHELPSRDMFRAETICLHLVEQWLSCGMERKHLLRAVEPLQNALAPLMESEYGILHKLLDAKGVSKAQDAPLRVKRTEGGPPTGAMPLGGASGFGHAAEPGWSSSAMQQFMSAGMAAGIGTEPGIALPPGASAGLGMLARARHRALDAMNQLRQVLSQPAVGIPGLMPGAPLVPMPPASAALAQALQEQQQLMVAELRAQYPAATGSAMAMPAMDYSPAAIDQLVNQVRERSADWKQKAQTTGEKATIEVVALMFQSILSEDRLPPSIRVWFARLQVPVLRVALAEPQFFSDLNHPARKLIDRMGSCVMGFDASSINGNALETEIRRVVQVIEQYPETGQKVFALVLREFEAFLTKHFAQNRSTAKITSVAQQVEQKETLAIQYTIELRNMLTDMPVREEVRDFLFKSWADVLAMATVRYGAKDARAMRFKQAASELVWSASAKPSRQERARVIQGLPTLLQTLREGLELVSVTGDAQSTAIKVLTDTLAQAFMSKTAAIPAERIEAMAKRLSELEKYISEDGKLDDMPLSSESIELMLGVDAGDLNVIPNTDSPVEPAMLEWARSLESGRWFTLDHNGSRVQVQYVWHSRRRHLHLFASLDGHCYLLQAQRMATYLQAGLLAVHDAEALTVRATRDALQKIQANPEREGHHHHHH | soluble
20 | MGSDKIHHHHHHMVYTTPWNRKIEFGRTMVMGIINVTPDSFFADSRKQSVLEAVETAKKMIEEGADIIDVGGMSTRPGSDPVDEEEELNRVIPVIRAIRSITDVPISVDTYRWRVALKALEAGADIVNDISGYQFEPDIVRVVSENNVPYVLMHIKGTPKTMQENPHYEDVVKEIKEYFTEKIEYLKEKGVNQIVLDPGIGFGKRYEDNLEILRRIDEFKELKLPILIGASRKSFIGITLGNVPPEERLEGTLAVTAYCTMKGVDIIRVHDVLPNKRVIRMMEAILWQRL | not soluble
21 | MELFTFIPYFLLLEREESDRNTLANANTEFIREVYELQRVEKDVTLVFFQLQYLSCKLVILREHYRTAQKEHLPCYAYIIGTLEYLKGLLDRCRFIHKCGSAIAPACLPTTEGDPPVCWTAEVICLMELLYACHELKMFNGGEVTLGRVVEYVCHVLGVNVKNASSYYARMRRRKAGDRTYFIDRLREVLLKRMEDDDEGHRRRNR | not soluble
